The supplement of paper PMC12042874
± gives the uncertainty stated by the source.

assay: amyloid nucleation score (Sup35N fusion, yeast selection) (log enrichment); library NNK2; higher = more nucleation; inactive = no reads after selection
Method in brief: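 After 24 hours of induction with 100 μM copper sulfate, psi-negative yeast expressing peptides of 20 random codons fused to Sup35N were grown for 7 days at 30°C on medium lacking adenine and uracil. Input and output plasmid inserts were sequenced with Illumina, and sequences with under 100 input reads were discarded. Scores for nucleation are the DiMSum log enrichment of output over input reads, centred on the mode score of non-aggregating sequences.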

Row | Substance | amyloid nucleation score
1 | LIYGDASETLC | 0.227 ± 0.43
2 | MWVDQMVFKRPGYCRSGMYL | 4.78 ± 0.049
3 | FCLGRMLARPRRTCYTDENM | -0.126 ± 0.49
4 | YSSFDISLYFGNHHWSLMTR | 4.11 ± 0.078
5 | CVVECIRSNHPSNFMMRNLG | inactive
6 | FVQAVDVVWFGILLKVLFRS | inactive
7 | LRCFRACQTRRAFEVLLLEF | -0.152 ± 1
8 | IDQLLGLDRSCCVNL | 0.387 ± 0.8
9 | RIYFVEFMESWWGVGSLKEV | 3.51 ± 0.094
10 | GCNLFYCLTRSSIETNTSIS | 4.3 ± 0.095
11 | SCYNFVWYTCGLYMWLNCLL | -0.793 ± 0.32
12 | SLIDLLPCFFICRGRCFPSV | -0.672 ± 0.37
13 | LSQVSRFLSSTNLT | 0.579 ± 0.47
14 | EFFISVSLNWCKTDCYTDPW | -0.407 ± 0.2
15 | SFRTAHSAPEVGMLEVYMNL | 0.334 ± 0.5
16 | WINLSRFFSLGKFRIAIRYY | -1.04 ± 1.1
17 | WFLHRGSIGYQTAFFCSYLP | -0.208 ± 1.1
18 | LVQRWGWSKPLIAGI | -0.271 ± 0.49
19 | SHGFFMAVEGLNCVRFVIIL | inactive
20 | FCNLN | -0.02 ± 0.28
21 | MFNACDNRKFCVGVCSDLK | 0.036 ± 0.41
22 | TAHYDVGC | -0.283 ± 1
23 | NIYGDNVGCYSTECYNTKLI | -0.305 ± 0.74
24 | TGCDVLRIVTRMMGKNKRYF | -0.047 ± 1.1
25 | NDLYDSINEA | -0.885 ± 0.38

Row | Substance | amyloid nucleation score
26 | YMRVLYIRRLWIHFL | 1.92 ± 0.18
27 | VKGVLPVLWMGFNKQHFINH | 0.602 ± 0.81
28 | CVMGPAT | 1.02 ± 0.3
29 | DMFIVYSSLYRSFLIFESLH | -2.42 ± 0.75
30 | FGCSVNRKILVLMFVNVISV | -0.627 ± 0.39
31 | WPYRMMR | 0.554 ± 0.74
32 | RIFLYND | inactive
33 | RSVSNDKYVFWFLRLVDVKA | 0.225 ± 0.26
34 | AWDDL | 0.154 ± 0.45
35 | CPLEAYLD | inactive
36 | SCLEMYSHRVPWSFACDDYN | inactive
37 | EFYFSVRPVKLCFGLNVTNN | -0.146 ± 1
38 | WNMMPRASEQFYYRL | inactive
39 | MVDTTRSTCISNSISWCAID | 5.28 ± 0.062
40 | MIASIGLDCEHVM | 0.841 ± 0.5
41 | LCGSQFL | 0.705 ± 0.66
42 | RRKVCYTSQVRRLVNQRNVS | -1.11 ± 0.34
43 | MDCECG | 1.03 ± 0.3
44 | CNGFVWLFSVGYFNNRFMWF | inactive
45 | IDVLTQLNSFRMNFYVSANI | -0.868 ± 1.1
46 | DGSSDRQGVKFFVDTSFLSR | -0.593 ± 0.48
47 | ISLAINLCALIDATRDWSPC | 6.12 ± 0.05
48 | GVSLLVSTSHGFVREPQVTS | 0.526 ± 0.66
49 | TLKLALEFLNEIYEEPVKCR | -1.36 ± 0.48
50 | TYALVTRLFCFLVSEHWVTL | -0.047 ± 0.26

Row | Substance | amyloid nucleation score
51 | AIRVLCKEYSQSDRMNEWLN | inactive
52 | MPCLFVF | 2.28 ± 0.17
53 | RHLVIYRLVNCKSARLSRTL | inactive
54 | SQGGIRWY | -0.842 ± 0.38
55 | ENVCCGVGSVYKSMLAAPPW | 10.23 ± 0.056
56 | CASWLVCMFRGMFRVLNTSG | 2.82 ± 0.17
57 | GMVRRQVTLMSSSDRAI | -1.07 ± 1.1
58 | NCYGVVYSLCNMEVLSMWHE | 7.723 ± 0.036
59 | QDNRYPLFVLSTLLSLIFLL | inactive
60 | FIIMFIRLLSW | 1.12 ± 0.14
61 | YDVRLFKLTTTSFAIVLSEW | 0.823 ± 0.21
62 | CLLVEHNMLWWWSCCIGCWK | 0.635 ± 0.37
63 | PRVPCTHHMPGW | 0.027 ± 0.65
64 | MCPLT | 0.638 ± 0.17
65 | DNGNWVCWLHVLGQGSHRKA | inactive
66 | MFFNLAI | inactive
67 | NALSIQVGSCPRSLISSVGP | 0.228 ± 1
68 | FNDGTQKSTLACVRNKYRVY | 0.633 ± 0.57
69 | ADSCKVMKWDRRPLEDFNWC | -0.041 ± 0.19
70 | FVYKTGYVSSVCYGIVVVVD | -0.826 ± 0.5
71 | LKLRAPRVMSGIVDSLMWLT | -0.32 ± 0.63
72 | SKLRFAIIFAKHVS | -0.322 ± 0.41
73 | THSWGFSLYTFLVYINLSYI | -0.545 ± 1
74 | EEYCSFKLVHMGRGPAGHSI | 2.58 ± 0.11
75 | RTWCDGGCPV | 0.653 ± 0.81

Row | Substance | amyloid nucleation score
76 | VKVHSIESGGLRPWCVGASV | 0.747 ± 0.3
77 | MSRWKVHFTMRTSPCIVNEH | 1.17 ± 0.45
78 | FYVVFLNGVLLDYNDDLYGI | inactive
79 | LLYYPIDGQGDGWLWCVYRV | -0.067 ± 1.1
80 | FMVWWFTIRVPEDCYQP | -0.5 ± 0.39
81 | NMLWASMYH | -0.546 ± 0.42
82 | SYVQMTDT | -0.146 ± 1
83 | SSLEFYVFWYP | -1.14 ± 1
84 | FPGRFRGKSLEKRMVM | 0.721 ± 0.46
85 | IHSEFHKSY | inactive
86 | MSFNGCFDRMRREDRYEI | 0.16 ± 0.65
87 | LQVMEIYSLSIYYIYFLYIG | inactive
88 | AANDMPMNSPIFSLGSDMPH | 1.01 ± 0.48
89 | RSLFKLTENCCIIVSWASDN | 8.848 ± 0.057
90 | RKVPVR | inactive
91 | FYVVALGYKIVLCTMFYMLE | -1.16 ± 0.31
92 | HWLNLCP | -0.512 ± 0.48
93 | DVVILMF | 0.639 ± 0.5
94 | LKNRILPFSNHELIVAGLGL | -0.388 ± 1
95 | HIICSRHSNEAKLRMKSKAI | -1.03 ± 0.61
96 | CMQTSDEPLRHGP | -0.06 ± 0.79
97 | YLVNNNFFVTIVILVWRTGV | 1.39 ± 0.18
98 | AIITLYSNHKLYLWALLLDA | -0.47 ± 1.1
99 | YTANLWYQAWMYSYCENPPT | inactive
100 | KLQLVTLW | 3.66 ± 0.072

Row | Substance | amyloid nucleation score
101 | DISWYCGDHGSVVVECRNDL | 2.63 ± 0.069
102 | GHFAF | -0.159 ± 1.1
103 | FSKHCYIIMYDISRSKTSIF | -0.525 ± 1.1
104 | MFLFGASLRIIRVVLTYELL | inactive
105 | SVLEANMHAVWTGRYEN | 0.713 ± 0.22
106 | TGILMWAGLQVHV | 1.86 ± 0.13
107 | WLVRLVIGGFTQSGMWLTEI | 1.06 ± 0.16
108 | IVNCCSYLYTRIHNVGPAGN | 6.383 ± 0.063
109 | SRFCVRRLTVYRRSV | 0.43 ± 0.45
110 | LDTCVFHHLVGIEKATIYR | 0.455 ± 0.48
111 | RLELVTVVSVSMHDLRHRRR | 4.75 ± 0.071
112 | VYYVSRLLTFFPVSSNPCGS | 0.566 ± 0.56
113 | FQFRCCTM | 9.232 ± 0.024
114 | KECVHHDHFYG | inactive
115 | MFLNPQPVFDLISFNVVSTP | 9.306 ± 0.032
116 | LMWENFSRRLLYWLLCGS | inactive
117 | SDHFKWV | -1.05 ± 1
118 | VIRSSFFFSLELSSREEFGY | -0.817 ± 0.74
119 | HSWAKMFMMLWGTMSRWDRA | -0.205 ± 0.62
120 | GNVRVECANLYRAVLPDMGH | -0.167 ± 0.63
121 | CWLGASTSNGLPAAGPSGLH | 0.868 ± 0.55
122 | RECFGGVQYRVRFSKFPYES | -0.663 ± 0.5
123 | NEDLIEKSLFCLAYSLFPTS | -0.266 ± 0.62
124 | FSVRLMAVRQGRLTAVGKSD | 0.331 ± 0.42
125 | VVNSGICSYRCFTVGQVTYK | -0.553 ± 0.55

Row | Substance | amyloid nucleation score
126 | FLLHVCVADKVGVTSIHTCC | -0.181 ± 0.35
127 | IFTYCVWSFSWFW | 7.302 ± 0.053
128 | WDSIVDVSSKIAFFRMNDSS | -1.41 ± 0.62
129 | VMGIEMIFVVGLWQLEDVKG | 0.747 ± 0.23
130 | IDCSFSFFVSPFRHPHSQED | 4.87 ± 0.092
131 | INLYPR | inactive
132 | DKLLMVSIFFSDSMTSLS | inactive
133 | MSPVCLCCYLPTRVYCKVSG | 5.85 ± 0.084
134 | SSDNRFCVDDFEVGVCGVMR | 2.84 ± 0.07
135 | FVSAHRYWCHMTLSAVMGLH | 3.04 ± 0.12
136 | IFVLVS | 0.131 ± 0.38
137 | HWFNSTRK | 0.187 ± 0.36
138 | VFRDLSIERFIRSYVNCDRG | inactive
139 | FMEYCSVLLFCLVMARLSGS | -0.012 ± 1.1
140 | LNRISYHTYSILPNVTIMKS | 0.498 ± 0.54
141 | MWIYNY | 2.78 ± 0.087
142 | ILNNMIL | 2.55 ± 0.21
143 | KNIVVTSPVLMNST | -0.179 ± 0.63
144 | YSFRGWSSSVWVTGWCGRSA | 0.45 ± 0.62
145 | SWETKVHIYMTDMLFSRHMS | 2.63 ± 0.086
146 | SNNWSLDMRRPVFKPPYGEG | -0.744 ± 0.53
147 | IMKYAHFNLK | 0.788 ± 0.51
148 | KHCQLLSVSAECDRPGLWKE | 0.75 ± 0.17
149 | VMGDWAFSGFSNSNFS | -0.931 ± 0.44
150 | FNTGSSMLLLIRVMVGKFGG | -1.57 ± 1.1

Row | Substance | amyloid nucleation score
151 | ICYFLKGAFRR | -0.493 ± 0.78
152 | WLMGVRG | -1.01 ± 0.64
153 | HVKTTYQLAFSNEQIM | -0.673 ± 0.48
154 | PWCTWSFVADLENSYRRWVR | 2.57 ± 0.12
155 | ETAQLWYSRVACCKKRVVYG | 0.594 ± 0.47
156 | DLYWSMLLYVMSRVYE | 0.249 ± 0.64
157 | YGRCVDLFCGIRYLHGSRLA | -0.299 ± 1.1
158 | LVKGRAAERCNFLSWVKSVQ | -0.533 ± 0.3
159 | YLNCDSFMRSVVYFNLWDIG | -1.57 ± 0.75
160 | QAHVQILYKL | 5.95 ± 0.054
161 | HREKAGSPSCREI | -0.347 ± 1
162 | SRCASKFVTWEAYYTVSVKR | 0.25 ± 0.8
163 | RRLLLLGSFWGSVHQHVTSS | -0.207 ± 0.4
164 | ALGVGVDFVKVWRNRGLAGG | 0.459 ± 0.51
165 | LCVEELMTCVCWVRS | 0.47 ± 0.26
166 | DNCSLPSGTMGSDNSGGRIQ | -0.444 ± 0.32
167 | SFITCRFNRDCFLLQFSWYN | inactive
168 | GRVCSRSFL | 2.1 ± 0.085
169 | CRLCWE | -0.459 ± 0.61
170 | ANMCELVLLELVIELRGGLA | 3.28 ± 0.088
171 | SCAGSWNNKGGSKLQWDFLV | -1.82 ± 0.75
